Experimental data as given in patent publication US20240409617A1.

Target: S1
Assay: BLI

CR3022 IgG was tested, and the Kd was under 1 pM.
